# Reference: patent US20170002079A1 (Amgen, published 2017)
# Where a chain is given by its changes, count along the chain named.
# B1: Ab6 (antibody, human IgG2, kappa, V domains shown)
# VH: EVQLVESGGGLVQPGGSLRLSCAASGFTFSTYDMHWVRQTTGKGLEWVSAIDLAGDTYYPGSVKGRFTISREDAKNSLYLQMNSLRAGDTAVYYCARGGDGYNYDYYGIDVWGQGTTVTVSS
# VL: DIVMTQSPLSLPVTPGEPASISCRSSQSLLHSDGYHYLDWYLQKPGQSPQLLIYLGSNRASGVPDRFSGSGSGTDFTLNISRVEAEDVGVYYCMQALQTLTFGGGTKVEIKR
# B2: Ab5 (antibody, human IgG2, kappa, V domains shown)
# VH: EVQLVESGGGWVQPGGSLRLSCAASGFTFSSYDMYWVRQATGKGLEWVSGIDTVGDTYYPDSVKGRFTISRENAKNSVYLQMNTLRAGDTAVYYCVRGIYGDFYYYGLDVWGHGTTVTVSS
# VL: B1 VL with H31Y, Y35N, H36N, Q50H, N79K, E86D
# B3: Ab7 (antibody, human IgG2, kappa, V domains shown)
# VH: B1 VH
# VL: B1 VL
# B4: Ab3 (antibody, human IgG2, kappa, V domains shown)
# VH: B1 VH with V37I, T40A, T41P, G44N
# VL: B1 VL with S68T, N79K, T99I
# notes: Fully human anti-ST2 antibody
# B5: Ab4 (antibody, human IgG2, kappa, V domains shown)
# VH: QVQLVQSGAEVKKPGASVKVSCEVSGFILTELSVNWVRQAPGKGLEWMGGFDPEDGKTIYAQKFQGRVTLTEDTSTDTAYMELSSLRSEDTAVYYCATWWDFHFDFWGQGTLVTVSS
# VL: DFVMTQTPLSLSVTPGQPASISCKSSQSLLHSNGKTYLYWFLQKPGQPPQLLIYEVSNRFSGVPDRFSGSGSGTDFTLKISRVEAEDVGVYYCMQSIQLPLTFGGGTKVEIKR
# notes: Fully human anti-ST2 antibody
# B6: Ab1 (antibody, human IgG2, kappa, V domains shown)
# VH: QVQLVQSGAEVKKPGASVKVSCKVSGYTLTELSIHWVRQAPGKGLEWMGGFGPEDGETIYAQKFQGRVTMTEDTSTDTAYMELSSLRSEDTAVYYCTTEDSSGLFDYWGQGTLVTVSS
# VL: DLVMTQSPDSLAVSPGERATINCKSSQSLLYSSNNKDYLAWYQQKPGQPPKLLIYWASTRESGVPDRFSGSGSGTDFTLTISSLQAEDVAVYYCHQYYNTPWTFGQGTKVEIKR
# notes: Fully human anti-ST2 antibody (XenoMouse); Full chains are the exemplary Ab1 chains
# B7: Ab8 (antibody, human IgG2, kappa, V domains shown)
# VH: EVQLVESGGGLVQPGGSLRLSCAASGFTFSSYDMYWVRQATGKGLEWVSAIDTVGDTYYPGSVKGRFTISRENAKNSLYLQMNSLRVGDTAVYYCARGGDYDYSYYGMDVWGQGTTVTVSS
# VL: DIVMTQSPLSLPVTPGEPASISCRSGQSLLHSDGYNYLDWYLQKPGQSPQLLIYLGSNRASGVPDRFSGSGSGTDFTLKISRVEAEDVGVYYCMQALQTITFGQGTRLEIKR
# B8: Ab2 (antibody, human IgG2, kappa, V domains shown)
# VH: EVQLVQSGAEVKKPGESLKISCKGSGYSFTNYWIGWVRQMPGKGLEWMGIIYPGNSDTRFSPSFQGQVTISADKSITTAYLQWSSLKASDTAMYYCARHGTSSDYYGLDVWGQGTTVTVSS
# VL: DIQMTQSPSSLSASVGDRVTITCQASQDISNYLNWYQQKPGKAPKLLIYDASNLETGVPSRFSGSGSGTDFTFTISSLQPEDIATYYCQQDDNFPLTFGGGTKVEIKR
# notes: Fully human anti-ST2 antibody (XenoMouse); Full chains are the exemplary Ab2 chains
# Tests used:
# [1] = target: T1, human ST2 on primary human cells (human, UniProt Q01638 19-556); assay: cell-based or functional assay
# T1 sequence: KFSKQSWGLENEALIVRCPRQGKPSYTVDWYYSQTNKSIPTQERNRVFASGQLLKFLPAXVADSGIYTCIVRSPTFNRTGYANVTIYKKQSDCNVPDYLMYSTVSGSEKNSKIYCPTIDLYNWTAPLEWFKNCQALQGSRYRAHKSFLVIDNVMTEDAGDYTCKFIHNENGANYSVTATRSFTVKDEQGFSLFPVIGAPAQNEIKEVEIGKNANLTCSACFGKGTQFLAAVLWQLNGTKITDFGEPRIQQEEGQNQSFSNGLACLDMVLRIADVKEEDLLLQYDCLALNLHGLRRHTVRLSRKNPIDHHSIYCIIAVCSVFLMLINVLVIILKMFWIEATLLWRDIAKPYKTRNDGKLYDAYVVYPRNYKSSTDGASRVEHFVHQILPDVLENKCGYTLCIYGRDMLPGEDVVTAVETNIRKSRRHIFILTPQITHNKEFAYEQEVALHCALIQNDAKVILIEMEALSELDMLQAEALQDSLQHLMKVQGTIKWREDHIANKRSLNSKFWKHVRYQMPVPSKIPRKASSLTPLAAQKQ
# [2] = target: ST2 (Example 4, pH-sensitive binding); assay: SPR Biacore 4000; association at pH 7.4, dissociation at pH 7.4; estimated kd
# Description: (§1) The association (5 min) rates at pH 7.4 and dissociation (10 min) rates at pH 5.5 and 7.4 were monitored at a flow rate of 30 uL/min. The reference subtracted data was fit to a 1:1 model in Scrubber.
# [3] = target: ST2 (Example 4, pH-sensitive binding); assay: SPR Biacore 4000; kd at pH 5.5 against kd at pH 7.4
# Description: as §1
# [4] = target: ST2 (Example 4, pH-sensitive binding); assay: SPR Biacore 4000; association at pH 7.4, dissociation at pH 5.5; estimated kd
# Description: as §1
# [5] = target: T1, human ST2 on primary human cells; assay: cell-based or functional assay; remark: listed apart in the source
# [6] = target: T1, human ST2 on primary human cells; assay: cell-based or functional assay; remark: listed apart in the source
# [7] = target: T2, cynomolgus monkey ST2 on cynomolgus monkey CD4+ T cells (cynomolgus monkey, UniProt Q01638 19-556 (human entry)); assay: cell-based or functional assay
# T2 chain: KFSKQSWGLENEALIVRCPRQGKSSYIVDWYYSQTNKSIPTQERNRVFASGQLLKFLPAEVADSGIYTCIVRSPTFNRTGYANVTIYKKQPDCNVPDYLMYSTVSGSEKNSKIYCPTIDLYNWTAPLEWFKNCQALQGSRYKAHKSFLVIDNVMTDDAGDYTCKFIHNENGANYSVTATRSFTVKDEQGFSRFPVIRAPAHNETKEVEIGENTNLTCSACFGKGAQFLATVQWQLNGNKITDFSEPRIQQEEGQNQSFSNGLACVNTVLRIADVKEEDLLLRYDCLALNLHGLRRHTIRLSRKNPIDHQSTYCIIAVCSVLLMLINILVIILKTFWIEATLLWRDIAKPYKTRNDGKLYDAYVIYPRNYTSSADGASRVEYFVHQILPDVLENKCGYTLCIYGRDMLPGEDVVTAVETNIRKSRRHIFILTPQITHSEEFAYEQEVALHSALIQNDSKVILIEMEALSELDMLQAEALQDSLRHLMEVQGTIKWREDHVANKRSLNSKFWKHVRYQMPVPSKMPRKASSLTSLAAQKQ
Binder,IC50 (read off the curve); % inhibition of IL-5 production by human CD4+ T cells stimulated with human IL-33 + IL-2 [1],koff [2],pH 7.4/pH 5.5 kd fold change [3],koff [4],"IC-50, human eosinophil IL-8 release assay (IL-33 and IL-3 stimulation) [5]","IC50 (nM), inhibition of human IL-33-induced IL-5 production from human CD4+ T cells [6]","IC-50, cynomolgus monkey CD4+ T cell IFNγ release assay (IL-33, IL-2 and IL-12p70 stimulation) [7]"
B1,~0.09 µg/mL,–,–,–,–,–,–
B2,~0.09 µg/mL,–,–,–,–,–,–
B3,~0.02 µg/mL,–,–,–,–,–,–
B4,~0.3 µg/mL,2.73e-05 s⁻¹,2.9 fold,7.91e-05 s⁻¹,–,–,–
B5,~0.08 µg/mL,0.000632 s⁻¹,16.9 fold,0.0107 s⁻¹,–,–,–
B6,–,0.000134 s⁻¹,88.1 fold,0.0118 s⁻¹,–,–,–
B7,~0.9 µg/mL,–,–,–,3120 pM,6.9 nM,158 pM
B8,~0.03 µg/mL,2.98e-05 s⁻¹,8 fold,0.000238 s⁻¹,–,–,–
